Biological target: the molecule itself
Experiment: cryo-EM structure; non-cross-linked full-length MpMS, unliganded, 50 uM in 20 mM HEPES pH 7.5, 150 mM NaCl, 1 mM DTT; only the PT domain reconstructed; map resolution 3.17 Å

B1: Macrophomina phaseolina macrophomene synthase (enzyme, Macrophomina phaseolina MS6, UniProt K2SUY0 1-698, looked up)
chain: MCNTKCYNTLAKMTVITEPAMEYMYSVPLDESEYDKCGFCQDPRYRPRRHKDQHLARAGSAKAKELCEALIGVYPRPTCESAVGHSIALVMPECMPGRVEAMGEFMESIFYMDNIAESGSQQDTGNLGTEWANDMETGPTTSVNSNTGAKQVMAKLALQLLSIDPVCAGNVMKAWKEWAAGFAKPRRFDSIEQYIDYRLVDSGAIVAVHLMNFGMGLDISVEELREVSDIVNHAGKALSYQNDFFSFNYEHDMFVKLPDSIGIANAVFVLAETEGLSLAEAKERVKELAKEHEDAVLRLKDEVESKVSYKLRICLEGLVDMVVGNLVWSASCDRYSSYRREKHQMELPIRIQGPPTPPQEPVYEKATLPNGKQLDAPTESSGKDLSDGVATLSGDEPVLGDEIVSAPIKYLESLPSKGFREAIIDGMNGWLNLPARSVSIIKDVVKHIHTASLLCDDIEDSSPLRRGQPSAHIIFGVSQTVNSTSYLWTLAIDRLSELSSPKSLRIFIDEVRKMQIGQSFDLHWTAALQCPSEEEYLSMIDMKTGGLFHLLIRLMIAESPRKVDMDFSGLVSMTGRYFQIRDDLSNLTSEEYENQKGYCEDLDEGKYSLPLIHALKHTKNKVQLESLLIQRKTQGGMTLEMKRLAIQIMKEAGSLEHTRKVVLELQDAVHRELAKLEEAFGQENYVIQLALERLRIKA
notes: codon-optimized synthetic gene cloned NdeI/EcoRI into pET28a (pRC088); Used without cross-linking in one cryo-EM sample and cross-linked with 0.06% glutaraldehyde in another; Only the PT domain (plus one TC helix in the cross-linked sample) could be modelled; also called MpMS; MPH_02178; source: E. coli BL21(DE3), purified (Ni-NTA, Resource Q anion exchange, Superose 6 size exclusion)
- stoichiometry N: 6

— PMC9177416, “Discovery of non-squalene triterpenes” (Nature, 2022)
